Assay [1] addresses T1, CD4 on the surface of human T cells (human, UniProt P01730 26-458).
T1 construct: whole, on cells; also called selection marker CD4
Description: affinity column cell selection from apheresis, surface marker MFI of the collected cells by flow cytometry, 24 h with or without anti-CD3/anti-CD28 oligomeric reagent. A general note: A flow cytometer gives signals particle by particle.
Description: Following immobilization of STREP-TACTIN® onto the stationary phase, two mL of the suspension of Sephadex G50 with Strep-Tactin® was incubated with 10 μg of a selection agent specific to a T cell surface selection marker for 20 min at 4° C. in order to allow binding of the Fab fragment to the immobilized Strep-Tactin® reagent. The suspension was then filled in a plastic minicolumn with a 90 micrometer frit at the bottom. The column was equilibrated with PBS (phosphate buffered saline) containing 0.5% bovine serum albumin (PBSA buffer) to give a bed volume of 1 mL.
As a control, an apheresis sample was loaded onto the anti-CD3 affinity column but without incubation in the presence of the anti-CD3/anti-CD28 oligomeric stimulatory reagent.

Assay [2] concerns the target T2, Strep-Tactin M2 streptavidin mutein covalently immobilised on chromatography resin (Streptomyces avidinii, UniProt P22629 38-163, covalently coupled to the resin (CNBr-activated Sephadex G-50, agarose, or epoxy-activated polystyrene)).
T2 construct: also called immobilized Strep-Tactin; STREP-TACTIN M2 multimer reagent
As to the kind of experiment: loading of Fab on Strep-Tactin Sephadex G50 resin, 20 min at 4 °C.
Description: A 50% suspension of Sephadex G50 contained approximately 70 μg of covalently coupled 7 Strep-Tactin®/mL of the bead suspension. Following immobilization of STREP-TACTIN® onto the stationary phase, two mL of the suspension of Sephadex G50 with Strep-Tactin® was incubated with 10 μg of a selection agent specific to a T cell surface selection marker for 20 min at 4° C. in order to allow binding of the Fab fragment to the immobilized Strep-Tactin® reagent. The suspension was then filled in a plastic minicolumn with a 90 micrometer frit at the bottom. The column was equilibrated with PBS (phosphate buffered saline) containing 0.5% bovine serum albumin (PBSA buffer) to give a bed volume of 1 mL.

B1: anti-CD4 Fab fragment m13B8.2 with Twin Strep-Tag (Fab, V domains shown)
VH: QVQLKQSGPGLVQPSQSLSITCTVSGFSLTTFGVHWVRQSPGKGLEWLGVIWASGITDYNVPFMSRLSITKDNSKSQVFFKLNSLQPDDTAIYYCAKNDPGTGFAYWGQGTLVTVSA
VL: DIQMTQSPASLSASVGETVTFTCRASEMIYSYLAWYQQKQGKSPQLLVHDAKTLAEGVPSRFSGGGSGTQFSLKINTLQPEDFGTYYCQAHYGNPPTFGGGTKLEIKR
With B1, the binding result in assay [1] and in assay [2] was “binds” throughout.
